Structures can show the parent of a compound that is named as a salt. Values belong to the molecule of their own block, whether it stands above or below them.
Tests used:
Mammalian P450 = conditions: cited from earlier work
[1] = Peroxygenase activity on 2-phenoxy-ethanol (4-AAP assay); assay type: biochemical
Description: (§1) The chimeras were assayed for hydroxylation of p-nitrophenoxydodecanoic acid (12-pNCA), a fatty acid analog that is hydroxylated by CYP102A1 and CYP102A2 to yield p-nitrophenolate (Schwaneberg et al., Anal Biochem 269,359-366 (1999)). […] When hydroxylation rates for the parent CYP102 enzymes were monitored using the maximum soluble concentrations of these substrates, activity could only be detected on 2-phenoxy-ethanol.
(§2) Rates on 2-phenoxy-ethanol and allyloxy-benzene were determined using 2 μM enzyme, 20 mM H2O2, 1% DMSO, and 1% acetone in 100 mM N-[2-hydroxyethyl]piperazine-N′-[3-propanesulfonic acid] (Epps) (pH 8.2) at room temperature. Substrate concentrations for 2-phenoxy-ethanol (100 mM) and allyloxy benzene (50 mM) maintained saturation. Reactions were initiated by the addition of H2O2 and quenched at appropriate times using an equal volume of a solution containing 4M urea and 100 mM NaOH. 120 μl of 0.6% 4-AAP was added, followed by mixing and addition of 120 μl of 0.6% potassium persulfate. Color was allowed to develop for 20 minutes before absorbance was read at 500 nm. Rates were determined from the linear region of the time course. The major products were determined by GC/MS to be the hemiacetal, which decomposes to phenol. The extinction coefficient for the 4-AAP/phenol complex was determined to be 4,800 M^−1cm^−1. The results can be seen in FIG. 4.

[2] = Peroxygenase substrate activity profile; assay type: biochemical; conditions: 20 mM H2O2
Description: as §1
Chimeras were assayed for peroxygenase activity on 12-pNCA, 2-phenoxy -ethanol and allyloxy-benzene. […] Rates are reported in nmol product/nmol P450/minute. […] Those with no activity include 65-256 and 277-365. Those with new activity include 165-256, 191-335, and 43-135.
This Example provides one method by which peroxygenase activity of a P450 enzyme may be characterized. First order rates for p-nitrophenolate accumulation were determined using 1 μM enzyme, 20 mM H2O2, 250 μM 12-pNCA and 0.5% dimethyl sulfoxide (DMSO) in 100 mM Tris-HCl (pH 8.2) at room temperature. Enzyme, substrate, buffer and DMSO were combined in a cuvette and zeroed at 410 nm. Reaction mixtures were incubated for 4 minutes and initiated by the addition of H2O2 to a final concentration of 20 mM. Initial rates were determined by monitoring the accumulation of p-nitrophenolate at 410 nm, and data from the first six seconds were used to determine initial rates. […] The extinction coefficient of p-nitrophenolate is 13,200 M^−1cm^−1 (Schwaneberg et al., Anal Biochem 269:359-366 (1999)).
as §2

[3] = Peroxidase activity with ABTS and H2O2; assay type: biochemical; conditions: for Peroxidase activity: 10 mM ABTS, 20 mM H2O2, pH 5.0, activities <0.2 not detectable (N.D.); for peroxidase activity relative to parents: ABTS
Description: P450s can reduce peroxide to water (and a proton) using a mechanism similar to that of peroxidases, although the intrinsic rate for P450s is many orders of magnitude slower. (Mansuy, D., Comp Biochem Physiol C Pharmacol Toxicol Endocrinol 121, 5-14 (1998)). It has been proposed that the earliest P450 function may have been as a peroxidase. (Gotoh, O., Cytochrome P450, 2nd Edition, pp. 255-272 (1993)). To investigate how recombination affects P450 peroxidase activity, the colorimetric substrate 2,2′-azino-bis(3-ethylbenzothiazoline-6-sulfonate) (ABTS) was used to monitor this reaction (Childs et al., Biochem J 145,93-103 (1975)).
This example provides an example of how one can measure peroxidase activity. Initial rates of peroxidase activity were measured by monitoring the accumulation of the radical cation of ABTS at 414 nm (Childs et al., Biochem J., 145:93-103 (1975)). Enzyme (1 μM) was mixed with 10 mM ABTS in 200 mM phosphate buffer (pH 5.0) in a cuvette at room temperature. Samples were zeroed and reactions were initiated with the addition of H2O2 to a concentration of 20 mM. The absorbance at 414 nm was monitored for 5 minutes. Rates were determined from the steepest portion of the time course. An extinction coefficient of […] for ABTS was used.

[4] = Thermostability (loss of Soret band at increasing temperatures); assay type: physicochemical; conditions: cell extracts heated 10 minutes
Description: Thermostability was assayed by monitoring the loss of the Soret band at increasing temperatures. […] However, thermostability may be important for retention of catalytic activity: the two chimeras that lacked peroxygenase activity were also the least thermostable.
Cell extracts were heated in a thermocycler for 10 minutes at various temperatures, followed by cooling to 4° C. Extracts were centrifuged for 5 minutes at 3500×g to remove any precipitates. Carbon monoxide reduced difference spectroscopy was used to quantitate the amount of P450. The reduction of the carbon monoxide peak was monitored over a range of temperatures.

- substrate activity profile relative to parents [2]: parent-like profiles
B2: Chimera 50-140: CYP102A1 heme domain with residues 50-140 from CYP102A2 (protein)
chain: TIKEMPQPKTFGELKNLPLLNTDKPVQALMKIADELGEIFKFEAPGRVTIVVSGHELVKEVCDEERFDKSIEGALEKVRAFSGDGLATSWTHEPNWRKAHNILMPTFSQRAMKDYHEKMVDIAVQLIQKWARLNPNEAVDVPEDMTRLTLDTIGLCGFNYRFNSFYRDQPHPFITSMVRALDEAMNKLQRANPDDPAYDENKRQFQEDIKVMNDLVDKIIADRKASGEQSDDLLTHMLNGKDPETGEPLDDENIRYQIITFLIAGHETTSGLLSFALYFLVKNPHVLQKAAEEAARVLVDPVPSYKQVKQLKYVGMVLNEALRLWPTAPAFSLYAKEDTVLGGEYPLEKGDELMVLIPQLHRDKTIWGDDVEEFRPERFENPSAIPQHAFKPFGNGQRACIGQQFALHEATLVLGMMLKHFDFEDHTNYELDIKETLTLKPEGFVVKAKSKKIPLGGIPSPST
modifications: Chimeric Cytochrome P450 heme group sequence from Bacillus megaterium and Bacillus subtilis
notes: CYP102A1 heme domain with residues 50-140 from CYP102A2
- Peroxidase activity [3]: 10.4 nmol product/nmol P450/min
- peroxidase activity relative to parents [3]: significantly higher peroxidase activities
- Tm [4]: 52 °C

- substrate activity profile relative to parents [2]: parent-like profiles
B3: Chimera 118-194: CYP102A1 heme domain with residues 118-194 from CYP102A2 (protein)
chain: TIKEMPQPKTFGELKNLPLLNTDKPVQALMKIADELGEIFKFEAPGRVTRYLSSQRLIKEACDESRFDKNLSQALKFVRDFAGDGLATSWTHEKNWKKAHNILLPSFSQQAMKGYHAKMVDIAVQLIQKWARLNPNEAVDVPGDMTRLTLDTIGLCGFNYRFNSYYRETPHPFINSMVRALDEAMHQMQRLDVQDPAYDENKRQFQEDIKVMNDLVDKIIADRKASGEQSDDLLTHMLNGKDPETGEPLDDENIRYQIITFLIAGHETTSGLLSFALYFLVKNPHVLQKAAEEAARVLVDPVPSYKQVKQLKYVGMVLNEALRLWPTAPAFSLYAKEDTVLGGEYPLEKGDELMVLIPQLHRDKTIWGDDVEEFRPERFENPSAIPQHAFKPFGNGQRACIGQQFALHEATLVLGMMLKHFDFEDHTNYELDIKETLTLKPEGFVVKAKSKKIPLGGIPSPST
modifications: Chimeric Cytochrome P450 heme group sequence from Bacillus megaterium and Bacillus subtilis
notes: CYP102A1 heme domain with residues 118-194 from CYP102A2
- Peroxidase activity [3]: 34.3 nmol product/nmol P450/min
- peroxidase activity relative to parents [3]: significantly higher peroxidase activities
- Tm [4]: 47 °C

- substrate activity profile relative to parents [2]: no activity
B4: Chimera 65-256: CYP102A1 heme domain with residues 65-256 from CYP102A2 (protein)
chain: TIKEMPQPKTFGELKNLPLLNTDKPVQALMKIADELGEIFKFEAPGRVTRYLSSQRLIKEACDEERFDKSIEGALEKVRAFSGDGLATSWTHEPNWRKAHNILMPTFSQRAMKDYHEKMVDIAVQLIQKWARLNPNEAVDVPGDMTRLTLDTIGLCGFNYRFNSYYRETPHPFINSMVRALDEAMHQMQRLDVQDKLMVRTKRQFRYDIQTMFSLVDSIIAERRANGDQDEKDLLARMLNVEDPETGEKLDDENIRFQIITFLIAGHETTSGLLSFALYFLVKNPHVLQKAAEEAARVLVDPVPSYKQVKQLKYVGMVLNEALRLWPTAPAFSLYAKEDTVLGGEYPLEKGDELMVLIPQLHRDKTIWGDDVEEFRPERFENPSAIPQHAFKPFGNGQRACIGQQFALHEATLVLGMMLKHFDFEDHTNYELDIKETLTLKPEGFVVKAKSKKIPLGGIPSPST
modifications: Chimeric Cytochrome P450 heme group sequence from Bacillus megaterium and Bacillus subtilis
notes: CYP102A1 heme domain with residues 65-256 from CYP102A2
- peroxidase activity relative to parents [3]: no detectable peroxidase activity
- Tm [4]: 36 °C

- substrate activity profile relative to parents [2]: no activity
B5: Chimera 277-365: CYP102A1 heme domain with residues 277-365 from CYP102A2 (protein)
chain: TIKEMPQPKTFGELKNLPLLNTDKPVQALMKIADELGEIFKFEAPGRVTRYLSSQRLIKEACDESRFDKNLSQALKFVRDFAGDGLATSWTHEKNWKKAHNILLPSFSQQAMKGYHAMMVDIAVQLVQKWERLNADEHIEVPEDMTRLTLDTIGLCGFNYRFNSFYRDQPHPFITSMVRALDEAMNKLQRANPDDPAYDENKRQFQEDIKVMNDLVDKIIADRKASGEQSDDLLTHMLNGKDPETGEPLDDENIRYQIITFLIAGHETTSGLLSFATYFLLKHPDKLKKAYEEVDRVLTDAAPTYKQVLELTYIRMILNESLRLWPTAPAFSLYPKEDTVIGGKFPITTNDRISVLIPQLHRDRDIWGDDVEEFRPERFENPSAIPQHAFKPFGNGQRACIGQQFALHEATLVLGMMLKHFDFEDHTNYELDIKETLTLKPEGFVVKAKSKKIPLGGIPSPST
modifications: Chimeric Cytochrome P450 heme group sequence from Bacillus megaterium and Bacillus subtilis
notes: CYP102A1 heme domain with residues 277-365 from CYP102A2
- peroxidase activity relative to parents [3]: no detectable peroxidase activity
- Tm [4]: 39 °C

The remaining lines, values behind:

Molecule: O=C(O)Cc1ccccc1Nc1c(Cl)cccc1Cl [Diclofenac]
- Mammalian P450 (main mammalian P450 responsible for breakdown) (Mammalian P450): CYP2C9

Molecule: Nc1c2c(nc3ccccc13)CCCC2 [Tacrine, 9-amino-1,2,3,4-tetrahydroacridine hydrochloride hydrate]
- Mammalian P450 (main mammalian P450 responsible for breakdown) (Mammalian P450): CYP1A2

Molecule: Nc1ccc(-c2ccccc2)cc1 [4-aminobiphenyl]
- Mammalian P450 (main mammalian P450 responsible for breakdown) (Mammalian P450): CYP1A2

Molecule: CCCCNC(=O)NS(=O)(=O)c1ccc(C)cc1 [Tolbutamide]
- Mammalian P450 (main mammalian P450 responsible for breakdown) (Mammalian P450): CYP2C9

Molecule: COc1ccc(C(c2ccc(OC)cc2)C(Cl)(Cl)Cl)cc1 [methoxychlor]
- Mammalian P450 (main mammalian P450 responsible for breakdown) (Mammalian P450): CYP2B6

B1: Chimera 46-73: CYP102A1 heme domain with residues 46-73 from CYP102A2 (protein)
chain: TIKEMPQPKTFGELKNLPLLNTDKPVQALMKIADELGEIFKFEAPAGTTIVVSGHELVKEVCDEERFDKSIEGALKFVRDFAGDGLATSWTHEKNWKKAHNILLPSFSQQAMKGYHAMMVDIAVQLVQKWERLNADEHIEVPEDMTRLTLDTIGLCGFNYRFNSFYRDQPHPFITSMVRALDEAMNKLQRANPDDPAYDENKRQFQEDIKVMNDLVDKIIADRKASGEQSDDLLTHMLNGKDPETGEPLDDENIRYQIITFLIAGHETTSGLLSFALYFLVKNPHVLQKAAEEAARVLVDPVPSYKQVKQLKYVGMVLNEALRLWPTAPAFSLYAKEDTVLGGEYPLEKGDELMVLIPQLHRDKTIWGDDVEEFRPERFENPSAIPQHAFKPFGNGQRACIGQQFALHEATLVLGMMLKHFDFEDHTNYELDIKETLTLKPEGFVVKAKSKKIPLGGIPSPST
modifications: Chimeric Cytochrome P450 heme group sequence from Bacillus megaterium and Bacillus subtilis
notes: CYP102A1 heme domain with residues 46-73 from CYP102A2
- fold higher peroxygenase activity with 2-phenoxy-ethanol than the most active parent (CYP102A1) [1]: 6 fold
- peroxygenase activity on 2-phenoxy-ethanol ([1]; 100 mM substrate): highest activity
- substrate activity profile relative to parents [2]: altered activity
- Peroxidase activity [3]: 6.8 nmol product/nmol P450/min
- Tm [4]: 55 °C
